Changes are numbered by the printed parent chain. In names and notes the source's numbering stands.

B1: humanized JOVI.1 Fab BIM0460 (Fab, V domains shown)
VH: QVQLVQSGAEVKKPGSSVKVSCKASGYTFTGYVMHWVRQAPGQGLEWMGFINPYNDDIQSNERFRGRVTITSDKSTTTAYMELSSLRSEDTAVYYCARGAGYNFDGAYRFFDFWGQGTLVTVSS
VL: DVVMTQSPLSLPVTLGQPASISCRSSQRLVHSNGNTYLHWYQQRPGQSPRLLIYRVSNRFPGVPDRFSGSGSGTDFTLKISRVEAEDVGVYFCSQSTHVPYTFGGGTKVEIK
B2: JOVI.1 Fab BIM0446 (Fab, V domains shown)
VH: EVRLQQSGPDLIKPGASVKMSCKASGYTFTGYVMHWVKQRPGQGLEWIGFINPYNDDIQSNERFRGKATLTSDKSSTTAYMELSSLTSEDSAVYYCARGAGYNFDGAYRFFDFWGQGTTLTVSS
VL: B1 VL with T14S, Q17D, P18Q, Q42L, R44K, R50K, V88L, V90I, V109L
B3: BJM1042 (anti-TRBC1/NKp30 bispecific antibody, N297A) (bispecific antibody)
heavy: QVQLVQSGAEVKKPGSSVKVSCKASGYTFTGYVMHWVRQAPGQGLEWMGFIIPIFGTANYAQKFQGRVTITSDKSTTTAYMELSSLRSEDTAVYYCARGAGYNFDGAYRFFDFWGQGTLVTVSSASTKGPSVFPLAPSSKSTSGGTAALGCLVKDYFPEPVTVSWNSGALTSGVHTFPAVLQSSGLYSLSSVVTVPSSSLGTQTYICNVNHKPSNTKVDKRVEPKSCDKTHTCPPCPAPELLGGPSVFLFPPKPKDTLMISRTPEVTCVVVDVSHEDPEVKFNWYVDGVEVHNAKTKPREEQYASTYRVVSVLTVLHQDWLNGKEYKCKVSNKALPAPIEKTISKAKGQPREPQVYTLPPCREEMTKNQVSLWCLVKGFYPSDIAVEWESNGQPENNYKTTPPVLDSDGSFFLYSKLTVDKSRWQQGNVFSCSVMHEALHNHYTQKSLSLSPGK
light: DVVMTQSPLSLPVTLGQPASISCRSSQRLVHSNGNTYLHWYQQRPGQSPRLLIYRVSNRFPGVPDRFSGSGSGTDFTLKISRVEAEDVGVYFCSQSTHVPYTFGGGTKVEIKRTVAAPSVFIFPPSDEQLKSGTASVVCLLNNFYPREAKVQWKVDNALQSGNSQESVTEQDSKDSTYSLSSTLTLSKADYEKHKVYACEVTHQGLSSPVTKSFNRGEC
scFv: EIQLLESGGGLVQPGGSLRLSCAVSGFSITTTGYHWNWVRQAPGKGLEWVGYIYSSGSTSYNPSLKSRFTISRDTSKNTFYLQMNSLRAEDTAVYYCARGDWHYFDYWGQGTMVTVSSGGGGSGGGGSGGGGSGGGGSDSVTTQSPLSLPVTLGQPASISCSGEKLSDKYVHWYQQRPGQSPRMLIYENDRRPSGVPDRFSGSNSGNDATLKISRVEAEDVGVYFCQFWDSTNSAVFGGGTKVEIKDKTHTCPPCPAPELLGGPSVFLFPPKPKDTLMISRTPEVTCVVVDVSHEDPEVKFNWYVDGVEVHNAKTKPREEQYASTYRVVSVLTVLHQDWLNGKEYKCKVSNKALPAPIEKTISKAKGQPREPQVCTLPPSREEMTKNQVSLSCAVKGFYPSDIAVEWESNGQPENNYKTTPPVLDSDGSFFLVSKLTVDKSRWQQGNVFSCSVMHEALHNHYTQKSLSLSPGK
B4: BJM1052 (anti-TRBC1/NKp30 bispecific antibody, N297A) (bispecific antibody)
heavy: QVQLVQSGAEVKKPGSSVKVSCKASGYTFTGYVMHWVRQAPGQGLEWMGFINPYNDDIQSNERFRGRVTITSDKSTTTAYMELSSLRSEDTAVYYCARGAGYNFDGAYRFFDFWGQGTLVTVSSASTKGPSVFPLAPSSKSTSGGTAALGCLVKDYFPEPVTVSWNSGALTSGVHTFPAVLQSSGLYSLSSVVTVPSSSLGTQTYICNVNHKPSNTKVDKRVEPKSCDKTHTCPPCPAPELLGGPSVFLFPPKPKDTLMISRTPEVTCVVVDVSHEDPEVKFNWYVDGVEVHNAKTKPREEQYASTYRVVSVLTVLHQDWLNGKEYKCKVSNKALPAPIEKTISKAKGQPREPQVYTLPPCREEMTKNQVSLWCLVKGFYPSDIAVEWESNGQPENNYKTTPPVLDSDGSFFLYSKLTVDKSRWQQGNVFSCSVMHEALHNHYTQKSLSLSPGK
light: B3 light
scFv: B3 scFv
B5: BJM1048 (antibody)
chain 1: not shown
chain 2: B3 light
chain 3: EIQLLESGGGLVQPGGSLRLSCAVSGFSITTTGYHWNWVRQAPGKGLEWVGYIYSSGSTSYNPSLKSRFTISRDTSKNTFYLQMNSLRAEDTAVYYCARGDWHYFDYWGQGTMVTVSSGGGGSGGGGSGGGGSGGGGSSSETTQPPSVSVSPGQTASITCSGEKLSDKYVHWYQQKPGQSPVMVIYENDRRPSGIPERFSGSNSGNTATLTISGTQAMDEADYFCQFWDSTNSAVFGGGTQLTVLDKTHTCPPCPAPELLGGPSVFLFPPKPKDTLMISRTPEVTCVVVDVSHEDPEVKFNWYVDGVEVHNAKTKPREEQYASTYRVVSVLTVLHQDWLNGKEYKCKVSNKALPAPIEKTISKAKGQPREPQVCTLPPSREEMTKNQVSLSCAVKGFYPSDIAVEWESNGQPENNYKTTPPVLDSDGSFFLVSKLTVDKSRWQQGNVFSCSVMHEALHNHYTQKSLSLSPGK
B6: BJM1038 (antibody)
chain 1: not shown
chain 2: B3 light
chain 3: B5 chain 3
B7: BJM1079 (BJM0411 Parental) (antibody, V domains shown)
VH: EIQLLESGGGLVQPGGSLRLSCAVSGFSITTTGYHWNWVRQAPGKGLEWVGYIYSSGSTSYNPSLKSRFTISRDTSKNTFYLQMNSLRAEDTAVYYCARGDWHYFDYWGQGTMVTVSS
VL: DSVTTQSPLSLPVTLGQPASISCSGEKLSDKYVHWYQQRPGQSPRMLIYENDRRPSGVPDRFSGSNSGNDATLKISRVEAEDVGVYFCQFWDSTNSAVFGGGTKVEIK
B8: BJM1078 (BJM0407 Parental) (antibody, V domains shown)
VH: B7 VH
VL: SSETTQPPSVSVSPGQTASITCSGEKLSDKYVHWYQQKPGQSPVMVIYENDRRPSGIPERFSGSNSGNTATLTISGTQAMDEADYFCQFWDSTNSAVFGGGTQLTVL
B9: BJM0889 (single arm anti-TRBC1 antibody, N297A) (antibody, V domains shown)
VH: B1 VH
VL: B1 VL

In the first test the target is T1, human TRBC1 (hTRBC1), construct BIM0444 (human, UniProt P01850 1-129).
T1 chain: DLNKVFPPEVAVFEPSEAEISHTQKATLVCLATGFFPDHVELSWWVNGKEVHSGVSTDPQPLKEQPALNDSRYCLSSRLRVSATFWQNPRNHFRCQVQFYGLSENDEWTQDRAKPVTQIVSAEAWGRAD
In words: Octet BLI.
As a reminder, the Kd is the constant that tells how readily two partners part at equilibrium. Higher therefore signals lower affinity. In the case of B1, binding was characterised by a dissociation constant (Kd) of 9 nM. As for B2, the affinity, expressed as Kd, was 4 nM.

In another test the target is T2, NKp30 on KHYG-1 NK cells (human, UniProt O14931 19-201).
T2 chain: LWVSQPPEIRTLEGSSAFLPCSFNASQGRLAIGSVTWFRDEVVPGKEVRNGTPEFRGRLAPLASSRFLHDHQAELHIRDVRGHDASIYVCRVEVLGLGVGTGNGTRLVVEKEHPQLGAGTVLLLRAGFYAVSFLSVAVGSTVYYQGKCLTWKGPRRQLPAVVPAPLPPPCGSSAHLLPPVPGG
Nature of the test: FACS cell binding.
The EC50 is the concentration needed to bring the measured effect to its halfway point. High values mean a less potent agent, low ones a more potent agent. In turn, B3 returned a concentration giving a half-maximal response (EC50) of 9.48 nM. In turn, B4 registered an EC50 of 6.61 nM. Same read-out and setting: next, B5: 7.66 nM; B6: 7.99 nM; B7: 5.36 nM.

Molecule B8 displayed a concentration giving a half-maximal response (EC50) of 5.2 nM.

In a further test the target is T3, TRBC1 on TRBC1+ Jurkat cells (human, UniProt P01850 1-176).
T3 chain: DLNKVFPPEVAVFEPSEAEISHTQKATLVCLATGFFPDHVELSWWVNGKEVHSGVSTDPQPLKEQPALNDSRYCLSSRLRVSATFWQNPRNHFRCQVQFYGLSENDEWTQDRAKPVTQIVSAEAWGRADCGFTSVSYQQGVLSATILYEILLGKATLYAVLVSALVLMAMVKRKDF
In words: FACS cell binding.
As for B3, the EC50 was 61 nM.

In turn, B4 showed an EC50 of 4.55 nM. Same read-out and setting: then B5, with 8.29 nM; and B6, with 60.5 nM; and B9, with 5.26 nM.

(Values after patent US20230357395A1 (published 2023).)
